Data as given in the Human Domainome abundance scans (Beltran et al. 2025).

B1: Zinc finger MYM-type protein 6, residues 427 to 504; numbered along this chain, O95789 (parent)
chain: KLKCQHCNHLFATKPELLFYKGKMFLFCGKNCSDEYKKKNKVVAMCDYCKLQKIIKETVRFSGVDKPFCSEVCKFLSA

Variants of: B1
Test: abundance fitness (aPCA) (normalised: wild type 0, dead -1); higher = more abundant; growth selection in yeast, the domain comes from the species named
Settings: Homo sapiens

Abundance fitness of substitutions, site by site:
N31: A -0.078, L -0.067, Y -0.134, S -0.042, C -0.1, Q -0.036, G -0.026, V -0.077, H 0.062
C28: R -0.877, S -0.969, L -0.859, M -0.752, V -1.1, G -0.866, K -0.731, N -0.367, E -0.671, A -1, F -0.855, H -0.608, Q -1.28, D -0.352, W -1
G22: E 0.049, A -0.065, L -0.231, P -0.33, T -0.054, V -0.255, F -0.254, W -0.226, C -0.063, Q -0.011, D -0.215, M -0.118, S -0.049
K30: T -0.123, C -0.24, H -0.063, S -0.049, L -0.061, Q -0.096, E -0.037, G -0.032, Y -0.028, I 0.021, D -0.138, F -0.101, W -0.146, P -0.107, M -0.059
Y36: C -0.187, G -0.183, L -0.181, T -0.169, D -0.453, M -0.093, H -0.005, Q -0.13, V -0.15, R -0.26, N -0.172, K -0.661, A -0.074, W -0.042
D47: A -0.033
L26: K 0.09, G 0.125, C 0.004, Q 0.166, P -0.03, T 0.035, F -0.148, D -0.066, R 0.089, S 0.054, N 0.097, M -0.015, E 0.118, A 0.05, V 0.037, W -0.053
K23: C -0.172, D -0.09, H -0.048, A -0.045, F -0.15, T -0.036, W -0.419, Q -0.097, I -0.129, M -0.041, N -0.001, E 0.062, L -0.067, S -0.058, G -0.067, V -0.091
C46: R -0.331, W 0.056, M -0.159, I 0.329, V -0.308, K 0.241, T -0.311, P -0.248, E -0.674, S -0.703, D -0.531, A -0.479, G -0.629
G29: T -0.145, H -0.333, M -0.084, Q -0.09, W -0.602, K -0.004, C -0.096, S -0.123, A -0.033, L -0.345, V -0.204, E -0.131, R -0.104, P -0.683, D -0.386
M24: S 0.012, E 0.111, D 0, Q 0.101, C -0.004, L -0.109, P 0.034, V -0.172, Y -0.249, I 0.19, G -0.059, A -0.083, W -0.065, T 0.118, R 0.13
K39: C -0.163, Q -0.043, T -0.058, A 0.029, Y 0.024, S 0.003, G 0.005, H -0.078, E -0.012, M -0.087, R -0.004, V -0.023, L -0.107, W -0.099, P -0.055
C32: P -1.05, Q -0.944, E -1.01, T -1.29, V -0.919, L -1.05, D -0.607, G -1.02, W -0.861, S -1.01
